According to paper PMC3915903 (Cell Research, 2013):

Target: GST-tagged PP2A core enzyme (AC heterodimer) (human, UniProt P30153;P67775)
Experiment: pull-down

GST-tagged PP2A core enzyme (AC heterodimer), sequence (P30153 whole entry, chain 1 of 2): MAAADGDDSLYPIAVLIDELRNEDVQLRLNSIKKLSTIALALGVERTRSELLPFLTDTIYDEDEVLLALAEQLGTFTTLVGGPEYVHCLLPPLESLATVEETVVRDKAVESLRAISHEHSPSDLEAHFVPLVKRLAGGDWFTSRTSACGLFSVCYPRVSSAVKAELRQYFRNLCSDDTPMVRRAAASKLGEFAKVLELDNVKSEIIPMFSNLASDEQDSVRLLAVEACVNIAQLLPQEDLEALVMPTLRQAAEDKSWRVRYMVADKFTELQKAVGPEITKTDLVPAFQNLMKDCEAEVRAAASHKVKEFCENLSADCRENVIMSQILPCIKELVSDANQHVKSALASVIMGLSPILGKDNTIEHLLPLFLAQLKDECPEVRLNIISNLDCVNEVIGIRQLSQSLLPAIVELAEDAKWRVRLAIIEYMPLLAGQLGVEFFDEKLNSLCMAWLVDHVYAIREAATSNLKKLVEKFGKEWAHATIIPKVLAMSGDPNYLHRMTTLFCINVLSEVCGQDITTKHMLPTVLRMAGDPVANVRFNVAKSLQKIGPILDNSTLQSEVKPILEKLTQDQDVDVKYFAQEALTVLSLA
GST-tagged PP2A core enzyme (AC heterodimer), sequence (P67775 whole entry, chain 2 of 2): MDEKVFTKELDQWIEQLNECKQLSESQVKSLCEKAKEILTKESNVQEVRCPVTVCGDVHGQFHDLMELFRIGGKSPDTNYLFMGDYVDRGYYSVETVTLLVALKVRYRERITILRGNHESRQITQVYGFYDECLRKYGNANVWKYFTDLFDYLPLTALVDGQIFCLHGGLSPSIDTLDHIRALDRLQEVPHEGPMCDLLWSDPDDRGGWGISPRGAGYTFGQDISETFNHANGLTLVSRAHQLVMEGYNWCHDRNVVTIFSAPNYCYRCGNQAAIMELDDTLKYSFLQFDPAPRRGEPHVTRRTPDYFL

Row | Binder | binding result
1 | Human PTPA, wild-type (natural protein) MAEGERQPPPDSSEEAPPATQNFIIPKKEIHTVPDMGKWKRSQAYADYIGFILTLNEGVKGKKLTFEYRVSEAIEKLVALLNTLDRWIDETPPVDQPSRFGNKAYRTWYAKLDEEAENLVATVVPTHLAAAVPEVAVYLKESVGNSTRIDYGTGHEAAFAAFLCCLCKIGVLRVDDQIAIVFKVFNRYLEVMRKLQKTYRMEPAGSQGVWGLDDFQFLPFIWGSSQLIDHPYLEPRHFVDEKAVNENHKDYMFLECILFITEMKTGPFAEHSNQLWNISAVPSWSKVNQGLIRMYKAECLEKFPVIQHFKFGSLLPIHPVTSG | binds
2 | PTPA R293E (natural protein) MAEGERQPPPDSSEEAPPATQNFIIPKKEIHTVPDMGKWKRSQAYADYIGFILTLNEGVKGKKLTFEYRVSEAIEKLVALLNTLDRWIDETPPVDQPSRFGNKAYRTWYAKLDEEAENLVATVVPTHLAAAVPEVAVYLKESVGNSTRIDYGTGHEAAFAAFLCCLCKIGVLRVDDQIAIVFKVFNRYLEVMRKLQKTYRMEPAGSQGVWGLDDFQFLPFIWGSSQLIDHPYLEPRHFVDEKAVNENHKDYMFLECILFITEMKTGPFAEHSNQLWNISAVPSWSKVNQGLIEMYKAECLEKFPVIQHFKFGSLLPIHPVTSG | binds
3 | PTPA V281A (natural protein) MAEGERQPPPDSSEEAPPATQNFIIPKKEIHTVPDMGKWKRSQAYADYIGFILTLNEGVKGKKLTFEYRVSEAIEKLVALLNTLDRWIDETPPVDQPSRFGNKAYRTWYAKLDEEAENLVATVVPTHLAAAVPEVAVYLKESVGNSTRIDYGTGHEAAFAAFLCCLCKIGVLRVDDQIAIVFKVFNRYLEVMRKLQKTYRMEPAGSQGVWGLDDFQFLPFIWGSSQLIDHPYLEPRHFVDEKAVNENHKDYMFLECILFITEMKTGPFAEHSNQLWNISAAPSWSKVNQGLIRMYKAECLEKFPVIQHFKFGSLLPIHPVTSG | binds
4 | PTPA M294K (natural protein) MAEGERQPPPDSSEEAPPATQNFIIPKKEIHTVPDMGKWKRSQAYADYIGFILTLNEGVKGKKLTFEYRVSEAIEKLVALLNTLDRWIDETPPVDQPSRFGNKAYRTWYAKLDEEAENLVATVVPTHLAAAVPEVAVYLKESVGNSTRIDYGTGHEAAFAAFLCCLCKIGVLRVDDQIAIVFKVFNRYLEVMRKLQKTYRMEPAGSQGVWGLDDFQFLPFIWGSSQLIDHPYLEPRHFVDEKAVNENHKDYMFLECILFITEMKTGPFAEHSNQLWNISAVPSWSKVNQGLIRKYKAECLEKFPVIQHFKFGSLLPIHPVTSG | binds
5 | PTPA F100D (natural protein) MAEGERQPPPDSSEEAPPATQNFIIPKKEIHTVPDMGKWKRSQAYADYIGFILTLNEGVKGKKLTFEYRVSEAIEKLVALLNTLDRWIDETPPVDQPSRDGNKAYRTWYAKLDEEAENLVATVVPTHLAAAVPEVAVYLKESVGNSTRIDYGTGHEAAFAAFLCCLCKIGVLRVDDQIAIVFKVFNRYLEVMRKLQKTYRMEPAGSQGVWGLDDFQFLPFIWGSSQLIDHPYLEPRHFVDEKAVNENHKDYMFLECILFITEMKTGPFAEHSNQLWNISAVPSWSKVNQGLIRMYKAECLEKFPVIQHFKFGSLLPIHPVTSG | binds
6 | PTPA V209D (natural protein) MAEGERQPPPDSSEEAPPATQNFIIPKKEIHTVPDMGKWKRSQAYADYIGFILTLNEGVKGKKLTFEYRVSEAIEKLVALLNTLDRWIDETPPVDQPSRFGNKAYRTWYAKLDEEAENLVATVVPTHLAAAVPEVAVYLKESVGNSTRIDYGTGHEAAFAAFLCCLCKIGVLRVDDQIAIVFKVFNRYLEVMRKLQKTYRMEPAGSQGDWGLDDFQFLPFIWGSSQLIDHPYLEPRHFVDEKAVNENHKDYMFLECILFITEMKTGPFAEHSNQLWNISAVPSWSKVNQGLIRMYKAECLEKFPVIQHFKFGSLLPIHPVTSG | binds
